A value given as a limit tells only on which side of the number the result lay.

These results are taken from paper PMC2199204.

The target of the assay is DGKζ with a FLAG epitope tag at its COOH terminus (DGKζ-FLAG) (human). The assay can be described thus: co-IP.
Chain of DGKζ with a FLAG epitope tag at its COOH terminus (DGKζ-FLAG) (human) (Q13574 whole entry): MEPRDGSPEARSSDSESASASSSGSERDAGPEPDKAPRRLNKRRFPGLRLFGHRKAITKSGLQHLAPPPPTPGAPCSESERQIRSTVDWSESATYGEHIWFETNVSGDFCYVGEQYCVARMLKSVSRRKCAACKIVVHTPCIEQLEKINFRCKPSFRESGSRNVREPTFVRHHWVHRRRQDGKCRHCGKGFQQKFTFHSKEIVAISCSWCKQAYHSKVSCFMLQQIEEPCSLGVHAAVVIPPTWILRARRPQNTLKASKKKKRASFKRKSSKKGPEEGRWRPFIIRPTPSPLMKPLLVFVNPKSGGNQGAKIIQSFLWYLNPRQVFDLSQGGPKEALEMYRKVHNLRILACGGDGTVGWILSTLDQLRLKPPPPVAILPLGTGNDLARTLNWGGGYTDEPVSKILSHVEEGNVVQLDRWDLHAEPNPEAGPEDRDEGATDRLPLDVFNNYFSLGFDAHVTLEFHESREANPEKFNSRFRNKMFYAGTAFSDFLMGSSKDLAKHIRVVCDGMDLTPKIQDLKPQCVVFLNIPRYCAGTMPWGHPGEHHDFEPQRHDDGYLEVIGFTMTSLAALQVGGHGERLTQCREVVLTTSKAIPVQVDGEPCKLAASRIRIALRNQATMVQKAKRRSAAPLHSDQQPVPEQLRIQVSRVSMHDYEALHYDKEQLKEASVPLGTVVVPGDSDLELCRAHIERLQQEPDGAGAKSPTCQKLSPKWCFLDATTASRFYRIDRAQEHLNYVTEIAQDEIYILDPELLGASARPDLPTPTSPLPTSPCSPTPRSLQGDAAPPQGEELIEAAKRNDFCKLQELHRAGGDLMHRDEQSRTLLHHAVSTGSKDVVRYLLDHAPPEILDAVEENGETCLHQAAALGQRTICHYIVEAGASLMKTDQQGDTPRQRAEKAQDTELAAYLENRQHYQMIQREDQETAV

Chain of RasGRP with an NH2-terminal HA epitope tag (HA-RasGRP) (O95267 whole entry): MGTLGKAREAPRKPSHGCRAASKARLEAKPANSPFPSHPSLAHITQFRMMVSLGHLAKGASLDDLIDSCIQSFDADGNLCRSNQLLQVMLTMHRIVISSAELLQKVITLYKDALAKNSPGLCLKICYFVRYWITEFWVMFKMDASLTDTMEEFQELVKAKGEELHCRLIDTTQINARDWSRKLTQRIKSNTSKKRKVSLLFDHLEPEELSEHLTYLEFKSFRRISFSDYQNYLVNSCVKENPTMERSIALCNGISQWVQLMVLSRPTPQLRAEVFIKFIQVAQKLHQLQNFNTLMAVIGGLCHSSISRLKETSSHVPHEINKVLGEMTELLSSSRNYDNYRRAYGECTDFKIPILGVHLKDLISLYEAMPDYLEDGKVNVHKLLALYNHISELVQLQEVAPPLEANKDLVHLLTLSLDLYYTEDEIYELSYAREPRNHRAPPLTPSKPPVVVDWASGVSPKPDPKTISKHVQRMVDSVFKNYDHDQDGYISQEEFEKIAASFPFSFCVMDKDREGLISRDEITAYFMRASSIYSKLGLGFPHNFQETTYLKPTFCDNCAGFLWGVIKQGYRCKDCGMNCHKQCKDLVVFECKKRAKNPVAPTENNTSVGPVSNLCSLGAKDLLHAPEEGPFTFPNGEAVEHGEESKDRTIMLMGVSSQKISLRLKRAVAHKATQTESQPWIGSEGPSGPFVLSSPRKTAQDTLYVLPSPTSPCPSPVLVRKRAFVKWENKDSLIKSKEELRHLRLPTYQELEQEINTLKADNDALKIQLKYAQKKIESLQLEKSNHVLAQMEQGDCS

Take “A15-H-Ras (from UniProt P01112 1-189) (natural protein)”: the percent coprecipitated is above 20%.

Substance “RasGRP with an NH2-terminal HA epitope tag (HA-RasGRP) (from UniProt O95267 1-797) (natural protein)” came in with a percent coprecipitated above 20%.
